Reference: US20110223176A1 (AbbVie / Abbott, published 2011)
Read-outs that look alike come from different tables or passages of the source.

What was measured:
[1] = molecular target: T1, cynomolgus monkey BSG2 on the cell surface (cynomolgus monkey); assay: cell-based ECL (MSD) binding on whole cells expressing cynomolgus BSG2
T1 construct: whole, on cells; also called BAF3-cyno BSG2; Cyno BSG2
Description: (§1) Cells were plated at 25,000 cells/well in 25 μl PBS using 96 well MSD high binding plates (MSD, catalogue no. L11XB-3), and incubated at 37° C. for 1 hour. 25 μl/well of blocking solution (30% serum in PBS) was added to the plates for 30 minutes at room temperature with mild agitation. Plates were then incubated with 25 μl/well of BSG2 antibodies (10 μg/ml) diluted in assay buffer (10% serum in PBS) for 1 hour at room temperature with mild agitation, and then washed 3× with PBS. Goat anti-mouse or anti-human IgG sulfotag was added at 1 μg/ml for 1 hour with mild agitation, and plates were washed 3× with PBS. After the final wash, plates were incubated with 2×MSD surfactant-free read buffer (catalogue no. R92TD-2) and the signal was detected on a MSD SECTOR Imager 6000. Data were analyzed using Graphpad Prism software and EC₅₀ values were reported.
(§2) BSG2 antibody binding activities against whole cells expressing human or cynomolgus monkey BSG2 were assessed by ECL using MSD technology (described in Example 1.3) and the receptor binding assay (described in Example 1.4) and are shown in Table 11.

[2] = molecular target: T2, human BSG2 (basigin isoform 2) on the cell surface (human, UniProt P35613 140-385); assay: cell-based ECL (MSD) binding on cells expressing human BSG2
T2 construct: Presented on stably transfected BAF3 cells or endogenously on human tumor cell lines (HepG2, MiaPaCa-2, DoHH-2); also called hBSG2; CD147
T2 sequence: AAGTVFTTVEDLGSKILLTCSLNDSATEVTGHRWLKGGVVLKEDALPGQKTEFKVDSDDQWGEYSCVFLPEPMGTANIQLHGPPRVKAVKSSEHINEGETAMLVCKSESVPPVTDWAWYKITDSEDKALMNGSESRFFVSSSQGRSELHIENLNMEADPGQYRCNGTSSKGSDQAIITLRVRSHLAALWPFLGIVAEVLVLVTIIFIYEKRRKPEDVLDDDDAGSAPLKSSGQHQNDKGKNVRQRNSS
Description: as §1
Select humanized variants were also tested for their functionality using ADCC and cell viability assays (described in Examples 1.6 and 1.7).

[3] = molecular target: T2, human BSG2 (basigin isoform 2) on the …; assay: receptor binding assay, Eu-labeled antibody on cells expressing human BSG2
Description: (§3) Cell lines expressing BSG2 were harvested and washed once in assay buffer (PBS, 0.1% BSA, 0.02% Na Azide, 10 mM EDTA) and resuspended to 5×10⁶ cells per mL. Serial 1:2 dilutions of ⁺³Eu-labeled anti-BSG2 antibody stock in assay buffer were made for final concentrations ranging from 1.6×10⁻⁸-7.7×10⁻¹² M, and a 4 mg/mL solution of unlabeled anti-BSG2 antibody was also prepared. To 96 well round bottom plates, 25 μl of ⁺³Eu-labeled antibody dilutions were added to 25 μl buffer (total counts), or 25 μl of unlabeled antibody were added to 25 μl buffer (background counts). 50 μl of cells at 2.5×10⁵ cells per well were then added to all samples, mixed gently, and incubated on ice for 1 hour. Cell bound antibody was then separated from unbound antibody by transferring 20 μL of the reaction mixture to Acrowell 96 well filter plates (Pall PN 5020), centrifuged for 5 min (2200 rpm), washed 3× with 150 μL cold assay buffer, and centrifuged for 5 min. Signal was determined by incubating samples with 150 μL/well of enhancement buffer and read using Envision. The specific counts were determined by subtracting the background counts (cells+labeled antibody+excess cold antibody) from the corresponding total counts (cells+labeled antibody) for each antibody concentration. The labeled antibody concentration versus total counts was analyzed using Graphpad Prism 4 to calculate Kd and Bmax values.
as §2

[4] = molecular target: T1, cynomolgus monkey BSG2 on the cell …; assay: flow cytometry (FACS) on BAF3 cells expressing cynomolgus BSG2
Description: (§4) Stable cell lines overexpressing cell-surface BSG2 or human tumor cell lines were harvested from tissue culture flasks, washed three times and resuspended in phosphate buffered saline (PBS) containing 1% bovine serum albumin and 1 mM CaCl₂ (FACS buffer). 5×10⁵ cells were incubated with antibodies at various concentrations in FACS buffer for 60 minutes on ice. Cells were washed twice and the bound murine monoclonal antibody was detected with a goat Fab′2 anti-mouse IgM+IgG+IgA (H+L) R-phycoerythrin-conjugated antibody (Southern Biotechnology Associates, Inc., Birmingham, Ala., Catalog No. 1012-08) diluted 1:500. Following incubation on ice (4° C., 60 minutes), cells were washed three times and resuspended in FACS buffer. Fluorescence was measured using a Becton Dickinson FACSCalibur-HTS (Becton Dickinson, San Jose, Calif., US). Data were analyzed using Graphpad Prism software and EC₅₀ values were reported as the concentration of antibody to achieve 50% of maximal BSG2 antibodies binding to BSG2 expressing cells.

[5] = molecular target: T2, human BSG2 (basigin isoform 2) on the …; assay: flow cytometry (FACS) on BAF3 cells expressing human BSG2
Description: as §4

[6] = molecular target: T2, human BSG2 (basigin isoform 2) on the …; assay: flow cytometry (FACS) on HepG2 hepatocellular carcinoma cells (cell-surface BSG2); HepG2 hepatocellular carcinoma cells (endogenous BSG2), not BAF3 transfectants
Description: as §4

[7] = molecular target: T2, human BSG2 (basigin isoform 2) on the …; assay: receptor binding assay, Eu-labeled antibody on cells expressing human BSG2; remark: listed apart in the source
Description: as §3

[8] = molecular target: T2, human BSG2 (basigin isoform 2) on the …; assay: cell-based ECL (MSD) binding on whole cells expressing human BSG2
[9] = molecular target: T2, human BSG2 (basigin isoform 2) on the …; assay: cell-based or functional assay

B1: mouse anti-human BSG2 monoclonal antibody ML64-6A11-3A3 (antibody, mouse IgG2a, V domains shown)
VH: EVKLEESGGGLVQPGGSMKLSCVASGFTFSNFWMDWVRQSPEKGLEWIAGIRLKSYNYATHYAESVKGRFTISRDDSKSSVYLQMNNLRAEDTGIYYCTDWDGAYWGQGTLVTVSA
VL: DIVMTQSHKFMSTSVGDRVSITCKASQDVSTDVAWYQQKPGQSPKLLIYSASYRYTGVPDRFTGSGSGTDFTFTISSVQAEDLAVYYCQQHYSTPFTFGSGTKLEIK
notes: Hybridoma antibody, mouse IgG2a/kappa; also called 6A11-3A3 parental mouse antibody; Ab 3A3
An EC50 [1] of 7.6 nM, an EC50 [2] of 0.6 nM and a Kd [3] of 2 nM were found for B1 in this work. It also gave an EC50 [4] of 0.35 nM, an EC50 [5] of 0.41 nM and an EC50 [6] of 0.32 nM. The Kd [7] was 2 nM, the EC50 [8] was 0.6 nM and the “Mitochondrial membrane potential, fold decrease against Neg control IgG2a, MiaPaCa cells” value [9] was 2.5 fold decrease. The “ph-Akt, fold decrease against Neg control IgG2a, MiaPaCa cells” value [9] was 2 fold decrease.
